A short description of this data set: yeast display, Sf9 membrane polyspecificity reagent, FACS + sequencing; frameworks hold sequencing errors. A digest of the protocol: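 Nanobodies from a synthetic yeast display library (Saccharomyces cerevisiae BJ5465), induced 36–48 hours with galactose, were stained 1 hour at 4 °C with 10% biotinylated, detergent-solubilized Sf9 membrane reagent, enriched on streptavidin microbeads, then FACS-sorted. Anti-HA (expression) and streptavidin (reagent binding) fluorescence set low and high (top ~1%) gates. Polyreactivity labels come from the gate of origin. Genes were colony-PCR amplified, MiSeq 2 × 250 sequenced and filtered by CDR length.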
Regarding “QVQLVESGGGLVQAGGSLRLSCAASGNTFYYAMGWYTQAPGKERELVASIRTGGSTNYADSVKGRFTISRDNAKNTVYLQMNSLKPEDTAVYYCNRDGTYSHTGWDYWRPYEYWGQGTQVTVSS”, the “polyreactivity (PSR sort gate)” value is reported as “low polyreactivity”. With “QVHLVESGGGLVQAGGSHRLSCAASGRIFRGYAMGWYIQAPGKERELVAAISGRGGRTYYADSVKGRFTISRDNAKNTVYLQMNSLKPEDTAVYYCNARRGRRGYYGNGDYWGQGTQVTVSS” the entry was “high polyreactivity”; with “QVQLVESGGGLVQAGGSLRLSCAASGRIFSYYAMGWYRQAPGKERELVAAISRTGGRTYYADSVKGRFTISRDNAKNTVYLQKNSLKPEDTAVYYCNVVGRRYWHWDQALDYWGQGTQVTVSS”, “high polyreactivity”. With “QVQLVESGGGLVQAGGSLRLSCAASGSTFLGNVMGWYRQAPGKERELVAAITSTGGNTYYADSVKGRFTISRDNAKNTVYLQMNSLKPEDTAVYYCAKKYVWTHNYWGQGTQVTVSS” the entry was “low polyreactivity”. As for “QVQLVESGGGLVQAGGSLRLSCAASGSTFKPYAMGWYRQAPGKERELVAAITWTGGSTYYADSVKGRFTISRDNAKNTVYLEMNSLKPDDTAVYYCNAYLRWYITLLRYLAGGDYWGQGTQVTVSS”, the “polyreactivity (PSR sort gate)” value is listed as “high polyreactivity”. As for “QVQLVESGGGLVQAGGSLRLSCAASGRIFRSYAMGWYRQAPGKERELFAAISYSGGSTYYADSVKGRFTISRDNAKNTVYLQMNSLKPEDTAVYYCAALPGERKYIYYGYDYWGQGTQVTVSS”, the “polyreactivity (PSR sort gate)” value is recorded as “high polyreactivity”.

On to “QVQLVESGGGLVQAGGSLRLSCAASGFNFPDYAMGWYRQAPGKETELVAAITSAGGRTYYADSVKGRFTISRDNAKNTVYLQMNSLKPEDTAVFYCNALTTKGTGTYNGGYWGEGTQVTVSS”, for which the “polyreactivity (PSR sort gate)” value is given as “high polyreactivity”. With “QVQLVESGGGLVQAGGSLRLSCAASGSIFWLYAMGWYRQAPGKERELVAAITWSGGRTYYADSVKGRFTISRDNAKNTVYLQMNSLKPEDTAVYYCARRQWPWYSNPARGGKYDYWGQGTQVTVSS” the entry was “low polyreactivity”; with “QVQLVESGGGLVQAGGSLRLSCAASGRTFTPNAMGWYRQAPGKERELVASIRRGTSTYYADSVKGRFTISRDNAKNTVYLQMNSLKPEDTAVYYCAAKSYHGYPFDYWGQGTQVTVSS”, “high polyreactivity”; with “QVQLVESGGGLVQAGGSLRLSCAASGRIFGYNVMGWYRQAPGKERELVAAISYGGGRTTYADSVKGRFTISRDNAKNTVYLQMNSLKPEDTAVYYCNAGGQHVTLDNGDYWGQGTQVTVSS”, “high polyreactivity”.

For “QVQLVESGGCLVQAGGSLRLSCAASGSTFLINAMGWYRQAPGKEREFVASIRYRGATTYADSVKGRFTISRDNAKNTVYLQMNTLKPEDTAVYYCAASIWLRYHWGYDYWGQGTQVTVSS”, the “polyreactivity (PSR sort gate)” value is reported as “high polyreactivity”.

On to “QVQLVESGGGLVQAGGSLRLSCAASGRIFDKYTMGWYRQAPWKERELVPAISKSGSGTFYADSVKGRFTISRDNAKNTVYLQMNSLKPEDTAVYYCARVYTVGSGRSWRLDYWGQGTQVTVSS”, for which the “polyreactivity (PSR sort gate)” value is listed as “high polyreactivity”. In the case of “QVQLVESGGGLVQAGGSLRLSCAASGFTFVYNAMGWYRPAPGKERELVAAITSGGNTYYADSVKGRFTISRDNAKNTVYLQMNSLKPEDTAVYYCAKRGYGRYYAYDYWGQGTQVTVSS” it was “high polyreactivity”; in that of “QVQLVESGGGLVQAGGSLRLSCAASGITLYRYVMGWYRQAPGKERELVADISGRGTSTYYADSVKGRFTISRDNAKNTVYLQMNSLKPEDTAVYYCNAEYTKTGAQREQSFLTRRGPGYDYWGQVTQVTVSS”, “low polyreactivity”; in that of “QVQLVESGGGLVQAGGSLRLSCAASGFTFWYYAMGWYRQAPGKERELVAAITRGGSTNYADSVKGRFTISRDNAKNTVYLQMNSLKPEDTAVYYCAKRQGYPTYRRYDYWGQGTQVTVSS”, “high polyreactivity”. Take “QVQLGESGGGLVQAGGSLRLSCAASGGIFAENAIGRYRQAPGKERELVAAINGGGSTKYADSVKGRFTISRDNAKNTVYLQMNSLKPEDTAVYYCAADPSVPRQVDYWGQGTLVTVSS”: the “polyreactivity (PSR sort gate)” value is reported as “low polyreactivity”. In the case of “QVQLVESGGGLVQAGGSLRLSCAASGSILGLYAMGWYRQAPGKERELVAAISSGGSTYYADSVKGRFTISRDNAKNTVYLQMNSLKPEDSAVYYCAADLSWSRVVFGDYDYWGQGTQVTVSS” it was “low polyreactivity”; in that of “QVQLVESGGRLVQAGGSLRLSCSASGLTFQYYAMGWYRQAPGKERELVATINSGGSTKYADSVKGRFTISRDNAKNTVYLQMNRLKPEDTAVYYCAADPYRRYRRPSRYGYWGQGTQVTVSS”, “high polyreactivity”. With “QVQLVESGGGLVQAGGSLRLSCAASGRTFYPYDMGWYRQAPGKERELDAAISRSGGSTYYADSVKGRFTISRDNAKNSVYLQMNSLKPEDTAVYYCAAVYYSYSFVDHYDYWGQGTQVTVSS” the entry was “low polyreactivity”; with “QVQLVESGGGLVQAGGSLRLTCAASGYIFRLNAMGWYRQAPGKEMELVAGISPGGRTNYADSVKGRFTISRDNAKNTVNLQMNSLKPEDTAVYYCAAAWNTAYWVGSDSLGGGYWGLGTQVTVSS”, “low polyreactivity”.

“QVQLVESGGGLVQAGGSLRLRCAASGSTFTKNAMGWYRQAPGKERELVAAISFTTGRTYYADSVKGRFTISRDNAKNTVYLQMNSLKPEDTAVYYCNKVYARSEQRGPVAGNYWGQGTQVTVSS”: the “polyreactivity (PSR sort gate)” value is given as “high polyreactivity”.

As to “QDQLVESGRGLVQAGGSLRLSCAASGFIFYQNAMGWYRQAPGKERELVAAISWRSGRTYYADSVKGRFTISRDNAKNTVYLQMNSLKPEDTAVYYCNAVRYPSYSPEYGSWGQGTEVTVSS”, the “polyreactivity (PSR sort gate)” value is on record as “high polyreactivity”.

For the sequence “QVQLVESGGGLVQAGGSLRLSCAASGRTFCSNAMGWYRPAPGKERELVAAISNGDNTYYADSVKGRFTISRDNAKNTVYLQMNSLKPEDTAVYYCNADYTVYDTEYDYWGQGTQVTVSS”, the “polyreactivity (PSR sort gate)” value was “low polyreactivity”. For “QVQLVESGGGLGQAGGSLRLSCAASGSIRDSNAMGWYRQAPGKERELVAAITSGGSTYYADSVKGRFTISRDNAKNTVYLQMNSLKPEDTAVYYCAAAYLGYGAVQPSYEGGYWGQGTQVTVSS”, the “polyreactivity (PSR sort gate)” value is “low polyreactivity”. In the case of “QVQLVESGGGLVQAGGSLRLSCAASGRTLSYNTMGWYRQAPGKEREFVAANTWSGGSTNYADSVKGRFTISRDNAKNTVYLQMNSLKPEDTAVYYCNADYLTVSWSIPEHVTVRLMYYWGQGTQVTVSS” it was “low polyreactivity”; in that of “QVQLVESGGGLVQAGGSLLLSCAASGRIFRPYAMGWYRQAPGKERELVAAISSSGGSTYYADSVKGRFTISRDNAKNTVYLEMNSLKPEDTAVYYCAARITQISYGSEIEHPYYYWGQGTQVTVSS”, “high polyreactivity”; in that of “QVQLVESGGGLVQAGGSLRLSCAASGSTLTYNAMGWYRQAPGKERELVADITS”, “low polyreactivity”. In the case of “QVQLVESGGGLVQAGGSLRLRCAASGRTFRYYAMGWYRQAPGKEREVVAAITRSGGSTYYADSVKGRFTISRDNAKNTVYLQMNSLKPEDTAVYYCAASRFTSYGIDYDYCGQGTQVTVSS” it was “high polyreactivity”; in that of “QVQLQDSGGGLVQAGGSLRLSCAASGYIFGSGSMGWFRQAPGKERELVATINNGSSTYYADSVKGRFTISRDNAKNTVYLQMNSLKPEDTAVYYCNRVGTYHSYDYWGQGTQVTVSS”, “high polyreactivity”; in that of “EVQLVESGGGLVQAGGSLRLSCADSGGIFIFYALGWYRQAPWKEREFVASIRSNVGSTYYADSVKGRFTISRDNAKNTVYLQMNSLNPEDTAVYYCNSRYYWYRGYDYWGQGTQVTVSS”, “high polyreactivity”. With “QVQLVEAGGGFVQAGGSLRLSCAASGFTFDYYAMGSYRQAHGKERELVAAITLNGGSTYYADSVKGRFTISRDNAKNTVYLQMNSLKPEDPAVYYCAADGSGYYDWYYYWGHGTQVTVSS” the entry was “low polyreactivity”; with “QVQLVESGGGIVQAGGSLRLSCAASGRTFYANAMGWYRQAPGKERELVAAISTVGDGTYYADSVKGRFTISRDNAKYTVYLQMNSLKPEDTAVYYCAVRHRASGILYDYWRQGTQVTVSS”, “low polyreactivity”; with “QVQLVESGGGLVQAGGSLRLSCAASGSIFNYYAMGWYRQAPGKEMELVAGITTSGGYTYYADSVKGRFTISSDNAKNTVYLQMNSLKPEDTAVYYCAAYDYISSTYFLDDYWGQGTQVTVSS”, “low polyreactivity”. In the case of “QVQLVESGGGLVQAGGSLRLSCAASGRTFYYYAMGWYRQAPCKERELVSAITTDGGNTYYADSVKGRFTISRDNAKNTVYLQMNSLKPEDTAVYYCATDGYEYTDYGSSGYDYWGQGTQVTVSS”, the “polyreactivity (PSR sort gate)” value was “low polyreactivity”. In the case of “QVQLVESGGGLVQAGGSLRLSCSASGSIFGVYTMGWFRQAPGKERELVAAITSAGSTYADSVKGRFTISRDNAKNTVYLQMNSLKPEDTAVYYCNAESVLLSVLVELREPHEYWGQGTQVTVSS”, the “polyreactivity (PSR sort gate)” value was “low polyreactivity”. In the case of “QVHLVESGGGLVQAGGSLRLTCAASGSIFAYYTMGWYRQEPGKERELVAAISRTGTSTFYADSVKGRFTISRDNAKNTVDLQMNSLKPEDTSVYYCIAVAPGKYNHWGQGTQVTVSS”, the “polyreactivity (PSR sort gate)” value was “high polyreactivity”. In the case of “QVQLVESGGGLVQAGGSLRLSCAASGSIILHYAMGRYRHAPRKERELVAVIRGGGSTNYADSVKGRFTISRDNAKNSVYLQMNSLKPEDSAVYYCAADYEAYRYDFWGQGTQVTVSS” it was “high polyreactivity”. As to “QDQLVQSAGGLVQAGGSLRLSCAASGRTIRAYAMGWYRQAPGKEREFVAAITWGDGSTYYADSVNGRFTISRDNAKNTVYLQMKSLKPEDTAVYYCATVQSCRVRTYDYWGQGTQVSVSS”, the “polyreactivity (PSR sort gate)” value was “high polyreactivity”. In the case of “QVQLVESGGGLVQAGGSLRLSCAASGRILYSYAMGWYRQAPGKEREFVAAISRSGARTYYADYVKGRFTISRDNAKNTVYLQMNSLKPEDTAVYYCAADDFSTVEYDYWGQGTQVTVSS” it was “low polyreactivity”; in that of “QDQHVESGGGLVQAGGSLRLICAASGSIFIANAMGWYRQAPGKERELVAAITLNGGSTYYADSVKGRFTISRDNAKNTVYLQMNSLKPEDTAVYYCAADWVWVAPQYWFVEYDYWGQGTQVTVSS”, “low polyreactivity”; in that of “QVQLVESGGGLVQAGGSLRLSCAASGFTFRVYAMGWYRTAPVKEREFVASITWGGGRTYYADSVKGRFTISRDNAKNTVYLLMNSLKPEDTAVYYCAAYGSLDSYVSYYYWGQGTQVTVSS”, “high polyreactivity”.
